# Measurements reported in patent US20030124590A1, “Carbohydrate response element binding protein and uses thereof” (priority 2001, published 2003).
# No end group written: not given here.
# Columns and labels:
# L-PK gene [1] = experiment: Glucose-induced L-PK transcription (luciferase) in ChREBP overexpressed hepatocytes with fatty acids or AICAR; assay type: cell-based, rat; conditions: 27.5 mM glucose
# Method: After a six h attachment period, hepatocytes were transfected using synthetic liposome (Lipofectamine 2000; Life Technologies) in Opti-MEM I reduced serum medium as described (Yamashita et al. Proc. Natl. Acad. Sci. USA 98, 9116-9121) and incubated for 12 h. As a control, hepatocytes were exposed to synthetic liposome in the same manner as each experimental group. […] The source of albumin for all studies was essentially fatty acid-free bovine serum albumin. Transfected cells were cultured for 12 h in culture medium containing 27.5 mM glucose plus 150 μM albumin-bound specific fatty acids or AICAR, washed twice with 2 ml Ca2+- and Mg2+-free phosphate-buffered saline, and lysed with Passive lysis buffer (Promega). Firefly luciferase and renilla (sea pansy) luciferase activities were measured sequentially using a Dual-Luciferase Reporter assay system (Promega) and a model TD-20E Luminometer (Turner Design, Sunnyvale, Calif.). After measuring the firefly luciferase signal and the renilla luciferase signal, the index of relative luciferase activity, indicating L-PK transcription activity, was calculated according to manufacturer's instructions (Promega).
# L-PK gene [2] = experiment: L-PK promoter luciferase reporter in ChREBP-transfected primary hepatocytes with kinase/phosphatase inhibitors or db-cAMP; conditions: for transcriptional activity of the L-PK gene in ChREBP-overexpressed hepatocytes: 5.5 and 27.5 mM glucose, 12 h, 10 μM H-89, 500 nM cantharidic acid, 5 μM KN-62, 30 μM PD98059, 50 μM Genistein
# Method: Primary hepatocytes were prepared from male Sprague-Dawley rats using the collagenase (Life Technologies, Inc.) perfusion method (Berry and Friend (1969) J Cell Bio […], 506-520) and plated in collagen-coated six-well tissue culture plates (Primaria Falcon, Franklin Lakes, N.J.) at a density of 1×10^6 cells/well in glucose-free Dulbecco's modified Eagle's medium (Life Technologies, Inc.) supplemented with 100 nM dexamethasone, 10 nM insulin, 100 units/ml penicillin, 100 μg/ml streptomycin and 10% dialyzed fetal bovine serum (Life Technologies, Inc.). Following attachment, synthetic liposomes were used to transfect hepatocytes with 0.5 μg of the luciferase reporter plasmid and 0.1 μg of the internal control plasmid pRL-TK. After 14 h the media was replaced by Dulbecco's modified Eagle medium supplemented with 100 nM dexamethasone, 10 nM insulin, 10% Fetal Bovine Serum and either 10 mM lactate, 5.5 mM glucose or 27.5 mM glucose. The cells were incubated for an additional 12 h prior to determination of luciferase activity using the Dual-Luciferase Reporter Assay System (Promega).
# Protein Kinase and Protein Phosphatase Inhibitors—Prior to exchange to 5.5 or 27.5 mM glucose medium, transfected primary culture hepatocytes were treated for 1 h with 10 μM H-89, 500 nM cantharidic acid (Calbiochem), 5 μM KN-62 (Calbiochem), 30 μM PD98059 (Calbiochem), 50 μM Genistein, or dimethylsulfoxide vehicle.
# Rat primary cultured hepatocytes were transfected a plasmid comprising a gene encoding the wild type (WT)-ChREBP. H-89, cantharidic acid, or dimethylsulfoxide vehicle was added, and the cells were incubated in 5.5 mM (□) or 27.5 mM (▪) glucose for 12 h.
# Rat primary cultured hepatocytes were transfected with wild type (WT)-ChREBP, S626A, S626D, T666A, or T666D. After transfection, the cells were incubated in 5.5 mM (□) or 27.5 mM (▪) glucose for 12 h. […] Rat primary cultured hepatocytes were transfected with wild type (WT)-ChREBP, S196A+S626A, or S196A+T666A. After transfection, cells were incubated under 5.5 mM (□) or 27.5 mM (▪) glucose, and cAMP was added both low and high glucose.
# GFP-fused ChREBP = experiment: Subcellular localization of GFP-fused ChREBP in primary hepatocytes (confocal microscopy); assay type: cell-based, rat; conditions: 12 h
# Method: Determination of Subcellular Localization of ChREBP—Subcellular localization of GFP-fused WT-ChREBP or its mutants was determined using a confocal laser scanning microscope (Bio Rad, Hercules, Calif.). In order to quantitate nuclear localization of ChREBP, for each condition, 100 transfected hepatocytes from 5 independent experiments were scored in a blinded fashion as to whether the GFP-fused ChREBP was predominantly nuclear or cytoplasmic. The identity of the nucleus was verified by comparative phase-contrast microscopy. B. Results
# Rat primary cultured hepatocytes were transfected with a plasmid comprising a gene encoding the GFP-fused wild type-ChREBP or NLS domain deletion mutants. […] The values are expressed as mean±SE. *P<0.05 compared to that of wild type-ChREBP.
# [3] = target: T1, cytosolic Xu-5-P activated PPase (Rattus norvegicus, UniProt P63331); experiment: Protein phosphatase assay, cytosolic Xu-5-P activated PPase of liver; assay type: biochemical; conditions: for inhibition of cytosolic Xu-5-P activated PPase (in words): okadaic acid 10 nM (absence and presence of Xu-5-P), cantharidic acid 500 nM, deltamethrin 300 nM; for Cytosol. PPase activity, +Xu5P / Cytosol. PPase activity, None: Mono Q purified, phosphorylated peptide as substrate; for Cytosol. PPase activity, None: absence of Xu-5-P
# T1 construct: from tissue; host or cells: rat liver cytosolic extract, DEAE-cellulose then Mono Q
# T1 sequence (P63331 whole entry): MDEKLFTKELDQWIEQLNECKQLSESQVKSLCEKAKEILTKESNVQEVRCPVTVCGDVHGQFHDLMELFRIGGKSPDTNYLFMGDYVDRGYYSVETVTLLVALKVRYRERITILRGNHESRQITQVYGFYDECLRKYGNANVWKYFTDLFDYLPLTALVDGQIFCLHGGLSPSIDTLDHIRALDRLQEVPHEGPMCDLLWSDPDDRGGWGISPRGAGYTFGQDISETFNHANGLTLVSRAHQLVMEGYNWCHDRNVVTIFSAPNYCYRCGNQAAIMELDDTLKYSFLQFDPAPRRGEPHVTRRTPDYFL
# T1 sequence (P56932 whole entry partner): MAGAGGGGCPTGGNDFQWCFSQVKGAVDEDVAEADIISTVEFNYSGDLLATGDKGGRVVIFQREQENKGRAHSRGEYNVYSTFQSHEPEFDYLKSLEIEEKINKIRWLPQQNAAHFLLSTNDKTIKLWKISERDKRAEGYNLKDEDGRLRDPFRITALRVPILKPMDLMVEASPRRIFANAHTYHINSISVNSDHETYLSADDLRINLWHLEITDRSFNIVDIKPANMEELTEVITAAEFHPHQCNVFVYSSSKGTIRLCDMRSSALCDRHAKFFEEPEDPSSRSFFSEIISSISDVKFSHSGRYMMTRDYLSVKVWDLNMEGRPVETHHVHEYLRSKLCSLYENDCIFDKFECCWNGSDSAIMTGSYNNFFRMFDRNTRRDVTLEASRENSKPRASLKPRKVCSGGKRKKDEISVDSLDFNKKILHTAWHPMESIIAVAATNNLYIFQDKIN
# T1 sequence (Q5XI34 1-589 partner): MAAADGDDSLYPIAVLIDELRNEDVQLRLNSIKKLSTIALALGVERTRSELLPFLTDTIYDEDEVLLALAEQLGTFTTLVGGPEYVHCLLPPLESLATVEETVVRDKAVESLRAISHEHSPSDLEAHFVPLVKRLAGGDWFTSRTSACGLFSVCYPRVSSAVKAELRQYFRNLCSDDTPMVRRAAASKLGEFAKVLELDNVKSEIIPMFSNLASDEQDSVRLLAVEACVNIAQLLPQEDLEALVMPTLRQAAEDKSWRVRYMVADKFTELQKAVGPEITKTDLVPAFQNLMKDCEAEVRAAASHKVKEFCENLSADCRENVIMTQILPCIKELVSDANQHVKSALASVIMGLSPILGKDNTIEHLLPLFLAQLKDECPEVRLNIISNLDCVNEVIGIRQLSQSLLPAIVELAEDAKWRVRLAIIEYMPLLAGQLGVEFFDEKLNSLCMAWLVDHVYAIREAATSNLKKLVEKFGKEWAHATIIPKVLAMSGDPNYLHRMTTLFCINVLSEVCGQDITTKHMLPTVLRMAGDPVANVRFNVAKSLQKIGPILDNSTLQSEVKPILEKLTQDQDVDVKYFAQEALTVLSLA
# Method: Liver was homogenized in a motor-driven Potter-Elvehjem homogenizer in 1 volume of extraction buffer containing 10 mM Hepes (pH 7.9), 10 mM KCl, 0.1 mM EDTA, 0.74 mM spermidine, 0.25 M sucrose, 50 mM imidazole, 1 mM dithiothreitol (DTT), 4 mM phenylmethanesulfonyl fluoride, and 1 mM benzamidine, and the extract was centrifuged at 10,000×g for 30 min.
# (§1) Synthetic peptides corresponding to amino acids #187-201 ([…] “P1” peptide) (SEQ ID NO:64), #556-573 ([…], “P4” peptide) (SEQ ID NO:65), and #655-674 ([…]; “P3” peptide) (SEQ ID NO:66), of ChREBP were prepared by the Peptide Synthesis Service of University of Texas Southwestern Medical Center. These peptides were phosphorylated by 10 U of PKA for 6 h at 30° C. P4 peptide corresponding to 556-573 ([…]) (SEQ ID NO:65), was phosphorylated by 10 U of AMPK for 5 h at 30° C. The reaction mixtures were passed through on a Dowex AG1X8 column (0.5 cm×5 cm) which had been equilibrated with 30% acetic acid to remove residual [^32P]-ATP. The labeled peptides in the pass through fraction were lyophilized.
# (§2) Protein phosphatase activity was determined by the method of Deana et al (Deana et al. (1990) Biochem, Biophys. Acta. 1051: 199-202). The reaction mixture contained in a final volume of 50 μ1,20 mM MOPS, pH 7.0, 1 mM DTT, 25 μg of BSA, and ^32P-labeled substrate for 15 min at 30° C. The reaction was terminated by the addition of 10% trichloroacetic acid. Phosphate released was converted to a phosphomolybdic complex followed by organic solvent (isobutyl alcohol:heptane, 1:1) extraction of the complex. The reaction mixture was mixed thoroughly and centrifuged. An aliquot of the top layer was then added to 5 ml scintillation fluid and counted. One unit of protein phosphatase is defined as that amount which catalyzes the release of 1.0 μmol of ^32P/min at 30° C.
# (§3) These peptides were assayed with Mono Q purified cytosolic and nuclear PPases in the presence and absence of 50 μM Xu-5-P.
# [4] = target: T2, nuclear Xu-5-P activated PPase (Rattus norvegicus, UniProt P63331); experiment: Protein phosphatase assay, nuclear Xu-5-P activated PPase of liver; assay type: biochemical; conditions: for inhibition of nuclear PPase (in words): 500 nM cantharidic acid, 300 nM deltamethrin; for Nuclear PPase activity, +Xu5P / Nuclear PPase activity, None: Mono Q purified, phosphorylated peptide as substrate; for Nuclear PPase activity, None: absence of Xu-5-P
# T2 construct: from tissue; host or cells: rat liver nuclear extract, DEAE-cellulose then Mono Q
# T2 sequence (P63331 whole entry): as the sequence (P63331 whole entry) above
# T2 sequence (P56932 whole entry partner): as the sequence (P56932 whole entry partner) above
# T2 sequence (Q5XI34 1-589 partner): as the sequence (Q5XI34 1-589 partner) above
# Method: Liver nuclear extracts were prepared as described in Example 1.
# as §1, §2, §3
# cultured hepatocytes = experiment: AMP, ADP, ATP assays in cultured hepatocytes; assay type: cell-based, rat; conditions: hepatocytes 12 h with 150 µM fatty acid, mean±S.E., n=4
# Method: Hepatocytes were scraped and collected directly into 0.5 ml of ice-cold 6% (v/v) HClO4. The concentrations of ADP and ATP were determined enzymatically in the acid-extract with methods described (Kawaguchi, T., Veech, R. L., and Uyeda, K. (2001) J. Biol. Chem. 276, 28554-28561), and the cytosolic AMP was calculated by the method of Veech et al. (Veech, R. L., Lawson, J. W., Cornell, N. W., and Krebs, H. A. (1979) J. Biol. Chem. 254, 6538-6547).
# Values are expressed as mean±S.E. (n=4).
# [5] = target: ChREBP (Carbohydrate Response Element Binding Protein) from rat liver (rat) (UniProt Q8VIP2); experiment: cell-based or functional assay
# ChREBP (Carbohydrate Response Element Binding Protein) from rat liver (rat), sequence (Q8VIP2 whole entry): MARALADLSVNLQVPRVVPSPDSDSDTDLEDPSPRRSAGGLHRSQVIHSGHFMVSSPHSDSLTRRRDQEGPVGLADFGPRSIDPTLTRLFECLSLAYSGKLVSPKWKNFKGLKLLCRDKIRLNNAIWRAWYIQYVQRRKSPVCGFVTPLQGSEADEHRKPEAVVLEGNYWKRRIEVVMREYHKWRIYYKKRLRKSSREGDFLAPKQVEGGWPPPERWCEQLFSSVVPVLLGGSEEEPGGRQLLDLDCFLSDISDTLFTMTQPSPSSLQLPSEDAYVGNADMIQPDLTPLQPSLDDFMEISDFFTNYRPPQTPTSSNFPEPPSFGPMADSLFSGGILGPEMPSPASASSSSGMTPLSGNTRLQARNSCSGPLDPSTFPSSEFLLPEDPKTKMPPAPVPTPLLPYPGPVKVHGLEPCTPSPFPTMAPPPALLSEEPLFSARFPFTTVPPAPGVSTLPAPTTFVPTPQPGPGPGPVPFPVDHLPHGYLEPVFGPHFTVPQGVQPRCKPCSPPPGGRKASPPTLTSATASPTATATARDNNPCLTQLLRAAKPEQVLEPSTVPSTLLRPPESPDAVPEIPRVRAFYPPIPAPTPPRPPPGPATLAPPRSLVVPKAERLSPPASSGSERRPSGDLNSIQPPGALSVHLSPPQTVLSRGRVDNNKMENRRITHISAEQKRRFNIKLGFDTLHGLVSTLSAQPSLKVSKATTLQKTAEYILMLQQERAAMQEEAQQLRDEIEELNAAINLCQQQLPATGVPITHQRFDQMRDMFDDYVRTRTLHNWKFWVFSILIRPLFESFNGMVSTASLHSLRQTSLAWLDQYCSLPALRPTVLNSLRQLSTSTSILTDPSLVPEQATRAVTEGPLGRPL
# [6] = test system: T3, P1 peptide of ChREBP (amino acids #187-201), phosphorylated by PKA
# T3 sequence: YYKKRLRKSSREGDF
# [7] = test system: T4, P3 peptide of ChREBP (amino acids #655-674), phosphorylated by PKA
# T4 sequence: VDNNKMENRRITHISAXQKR
# [8] = test system: T5, P4 peptide of ChREBP (amino acids #556-573), phosphorylated by AMPK
# T5 sequence: STVPSTLLRPPESPDAVP
# [9] = Mono Q purified enzyme, 50 μM Xu-5-P
molecule,measurement,setting,value
"NC(=O)c1ncn([C@@H]2O[C@H](COP(=O)(O)O)[C@@H](O)[C@H]2O)c1N [AICAR, 5-amino-4-imidazolecarboxamide ribotide]",inhibition of glucose activation of L-PK gene transcription,L-PK gene [1]; AICAR 50 μM,approximately 80%
same,inhibition of glucose activation of L-PK gene transcription,L-PK gene [1]; AICAR 200 μM,over 90%
O=c1c(-c2ccc(O)cc2)coc2cc(O)cc(O)c12 [Genistein],transcriptional activity of the L-PK gene in ChREBP-overexpressed hepatocytes,L-PK gene [2],did not affect
O=S(=O)(NCCNC/C=C/c1ccc(Br)cc1)c1cccc2cnccc12 [H-89],effect on endogenous ChREBP (L-PK transcriptional activity),"L-PK gene [2]; 10 μM H-89, hepatocytes without ChREBP overexpression",stimulated
same,transcriptional activity of the L-PK gene in ChREBP-overexpressed hepatocytes,L-PK gene [2],increased
same,nuclear staining rate of GFP-fused ChREBP,"GFP-fused ChREBP; 5.5 mM glucose, 10 μM H-89",increased
CN([C@@H](Cc1ccc(OS(=O)(=O)c2cccc3cnccc23)cc1)C(=O)N1CCN(c2ccccc2)CC1)S(=O)(=O)c1cccc2cnccc12 [KN-62],transcriptional activity of the L-PK gene in ChREBP-overexpressed hepatocytes,L-PK gene [2],did not affect
COc1cccc(-c2cc(=O)c3ccccc3o2)c1N [PD98059],transcriptional activity of the L-PK gene in ChREBP-overexpressed hepatocytes,L-PK gene [2],did not affect
O=C(CO)[C@@H](O)[C@H](O)COP(=O)(O)O [Xu-5-P],extent of activation of cytosolic PPase by Xu-5-P,[3]; [9],1.8 fold
same,activation of P1 dephosphorylation by PPase of desalted cytosolic liver extract,[3]; only metabolite among glycolysis and pentose shunt intermediates examined,able to activate
same,extent of activation of nuclear PPase by Xu-5-P,[4]; [9],1.8 fold
same,"activation of nuclear PPase, P3 peptide substrate","[4]; crude nuclear extract, added Xu-5-P",activated
same,"activation of nuclear PPase, P4 peptide substrate",[4]; nuclear extract,activated
CC(=O)O [acetate],AMP,cultured hepatocytes,910 ± 87 nmol/g cells
CC1(C(=O)O)C2CCC(O2)C1(C)C(=O)O (centres unmarked) [cantharidic acid],transcriptional activity of the L-PK gene in ChREBP-overexpressed hepatocytes,L-PK gene [2],inhibited
same,nuclear staining rate of GFP-fused ChREBP,"GFP-fused ChREBP; 500 nM cantharidic acid, 5.5 or 27.5 mM glucose",significantly decreased
same,inhibition of cytosolic Xu-5-P activated PPase (in words),[3],completely
same,inhibition of nuclear PPase (in words),[4],completely inhibited
CC1(C)[C@H](C(=O)O[C@H](C#N)c2cccc(Oc3ccccc3)c2)[C@@H]1C=C(Br)Br [deltamethrin],inhibition of cytosolic Xu-5-P activated PPase (in words),[3],did not affect
same,inhibition of nuclear PPase (in words),[4],not affected
"P1 peptide: synthetic peptide, amino acids #187-201 of ChREBP, YYKKRLRKSSREGDF, phosphorylated by PKA (also: phosphorylated by PKA, site not given here)","Cytosol. PPase activity, +Xu5P",[3]; 50 μM Xu-5-P,11.2 units/mg
same,"Cytosol. PPase activity, None",[3],6.2 units/mg
same,"Nuclear PPase activity, +Xu5P",[4]; 50 μM Xu-5-P,0.93 units/mg
same,"Nuclear PPase activity, None",[4],0.55 units/mg
"P3 peptide: synthetic peptide, amino acids #655-674 of ChREBP, VDNNKMENRRITHISAEQKR, phosphorylated by PKA (also: phosphorylated by PKA, site not given here)","Cytosol. PPase activity, +Xu5P",[3]; 50 μM Xu-5-P,11.0 units/mg
same,"Cytosol. PPase activity, None",[3],6.0 units/mg
same,"Nuclear PPase activity, +Xu5P",[4]; 50 μM Xu-5-P,0.94 units/mg
same,"Nuclear PPase activity, None",[4],0.52 units/mg
catalytic subunit of cAMP-dependent protein kinase (PKA) (enzyme),reduction in DNA-binding activity of ChREBP after phosphorylation (gel shift),[5],90%
"cytosolic Xu-5-P activated PPase (Mono Q purified, rat liver)","PPase activity (units/mg), +Xu5P (50 µM)",[6],11.2 units/mg
same,"PPase activity (units/mg), no Xu-5-P",[6],6.2 units/mg
same,"PPase activity (units/mg), +Xu5P (50 µM)",[7],11 units/mg
same,"PPase activity (units/mg), no Xu-5-P",[7],6 units/mg
same,"PPase activity (units/mg), +Xu5P (50 µM)",[8],8.8 units/mg
same,"PPase activity (units/mg), no Xu-5-P",[8],5.2 units/mg
"nuclear Xu-5-P activated PPase (Mono Q purified, rat liver)","PPase activity (units/mg), +Xu5P (50 µM)",[6],0.93 units/mg
same,"PPase activity (units/mg), no Xu-5-P",[6],0.55 units/mg
same,"PPase activity (units/mg), +Xu5P (50 µM)",[7],0.94 units/mg
same,"PPase activity (units/mg), no Xu-5-P",[7],0.52 units/mg
same,"PPase activity (units/mg), +Xu5P (50 µM)",[8],0.67 units/mg
same,"PPase activity (units/mg), no Xu-5-P",[8],0.39 units/mg
